These results are taken from publication PMC5020499, “Crystal structures of archaeal 2-oxoacid:ferredoxin oxidoreductases from Sulfolobus tokodaii” (Scientific Reports, 2016).

By stoichiometry N is commonly meant a count of units in the complex or per binding partner.

The target in data set [1] is T1, StOFOR2 a-subunit (STK_24350) (Sulfolobus tokodaii, UniProt Q96XT2 1-628).
T1 construct: a-subunit of 2-oxoacid:ferredoxin oxidoreductase StOFOR2, STK_24350, Sulfolobus tokodaii; gene amplified from genomic DNA with primers from the start codon to the stop codon; domains III (1a-228a), I (228a-500a), II (500a-627/628a); stk_23000 in pOFORAB was replaced with stk_24350; No tag is mentioned; A selenomethionine-labelled form (E. coli B834 (DE3)) was used for phasing only; also called …
T1 sequence (looked up): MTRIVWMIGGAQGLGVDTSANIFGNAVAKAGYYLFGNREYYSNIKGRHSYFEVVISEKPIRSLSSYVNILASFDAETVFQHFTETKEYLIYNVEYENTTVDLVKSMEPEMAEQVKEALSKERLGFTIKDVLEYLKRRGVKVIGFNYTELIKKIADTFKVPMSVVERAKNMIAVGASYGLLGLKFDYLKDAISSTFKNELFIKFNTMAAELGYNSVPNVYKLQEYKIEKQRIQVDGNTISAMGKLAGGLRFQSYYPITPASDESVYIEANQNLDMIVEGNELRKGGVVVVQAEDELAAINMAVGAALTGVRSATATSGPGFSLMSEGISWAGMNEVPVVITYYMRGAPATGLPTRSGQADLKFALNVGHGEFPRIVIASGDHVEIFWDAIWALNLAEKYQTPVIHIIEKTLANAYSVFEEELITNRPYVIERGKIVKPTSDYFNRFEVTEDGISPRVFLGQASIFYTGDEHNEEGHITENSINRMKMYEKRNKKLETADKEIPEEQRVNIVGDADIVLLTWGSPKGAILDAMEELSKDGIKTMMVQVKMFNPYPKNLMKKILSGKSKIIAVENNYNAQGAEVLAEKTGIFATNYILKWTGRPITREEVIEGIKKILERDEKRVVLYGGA
Nature of the data set: crystal structure; StOFOR2 ligand-free (2.1 Å) and soaked with 50 mM pyruvate (2.2 Å); sitting drop, 20 °C, 0.7 M ammonium tartrate dibasic, 0.1 M Tris-HCl pH 8.5; one protomer in the asymmetric unit. The following applies: both partners purified.

Data set [2] concerns the molecule itself. The description is as above.
Data set [3] deals with the molecule itself. Nature of the data set: crystal structure; StOFOR1 co-crystallised with 50 mM 2-oxobutyrate and 1 mM CoA; sitting drop, 25 °C, 15% PEG3350, 0.1 M Tris-HCl pH 8.5, 0.1 M NaBr; 2.5 Å; two protomers in the asymmetric unit.

B1: StOFOR2 b-subunit (STK_24330) (natural protein, Sulfolobus tokodaii, UniProt Q96XT4 1-304, looked up)
chain: MVERKPVFVDWCPGCGDFGILRAEEMAIRELGINPKSVVIVSGIGCSGKIPHFMNLPISGVHTLHGRSIAFATGIKLSNPSLEVIVNVGDGDGLGIGMGHFVHLGRRNIDIAVLVHNNGVYGLTKGQASPTLHRGEKTKSLPKPNIMDAVNPLAVALAAGYTFVARGYAYDVMHLKELIKKAILHKGSALVDILQPCPTYNDINTKEWYDKRVYKLDNVPGWDPVVRKEEEAQKKFEQAIMKSYEWGEKIPIGIFYQNELVPTFEDRLTSNIPNYREYYPAKQQIEINGISTTKIDELIKAKRI
notes: b-subunit of 2-oxoacid:ferredoxin oxidoreductase StOFOR2, STK_24330, Sulfolobus tokodaii; gene amplified from genomic DNA with primers from the start codon to the stop codon; domain VI (1b-305b); stk_22980 in pOFORAB was replaced with stk_24330; No tag is mentioned; Holds the [4Fe-4S] cluster; also called b-subunit of StOFOR2; source: E. coli C43 (DE3), expressed with the a-subunit, purified …
Regarding B1, the binding result in data set [1] is given as “binds”.

B2: StOFOR2 protomer (heterodimer of a-subunit STK_24350 and b-subunit STK_24330) (complex, Sulfolobus tokodaii)
chain 1: T1 sequence (looked up)
chain 2: B1 chain
notes: a-subunit of StOFOR2, STK_24350, Sulfolobus tokodaii; primers from the start codon to the stop codon; as the chain of m3; b-subunit of StOFOR2, STK_24330, Sulfolobus tokodaii; as the chain of m4; One protomer is the pair of a- and b-subunits that holds one TPP; Two crystallographically identical protomers form the (ab)2 enzyme; Cofactors: TPP, Mg2+, [4Fe-4S]; also called STK_24350/STK_24330; …
Take B2: the “stoichiometry N” value in data set [2] is 2.

B3: StOFOR1 protomer (heterodimer of a-subunit STK_23000 and b-subunit STK_22980) (complex, Sulfolobus tokodaii strain 7)
chain 1: MRLSWVIGGAQGTGIDTAANIFGNAVASAGYYIYGNREYYSNIKGRHSYFSLTISDKRVRSNTQKIDILVSFDAETVFQHFYDVKDILIYNKAVETTKIDAVQSMEPELAERIKDFLTKQGYETTVKGALEYASKNNVTLIPVNYDEIAKKVADEMKVPLSVTERVKNIVGITISYKLLGLDVNYLIEAINSTFKQDLYRKMNELAVKDSYDIVESRYNLKPSSKERRRFWLDGNTAVAIGKIYGGVRFQSYYPITPASDESVYIEAHQDVLMEDPITGDKKKGTIVVVQAEDELAAINMAIGAALTGVRAATATSGPGFSLMVEGLGWAGMNEVPVVITYYIRGGPSTGLPTRTAQSDLIFPIFAGHGEFPKIVLASGDHAEAFKDAIWALNLAEKYQTPVIHLVEKTLANSYSTIPYEELELDKLKAERGKIVESGDISYKRFKFTEDGISPRAFLGKATMYYTGDEHNEEGHISEDVVNRTMMYEKRMKKLEVADKEIPEESRVKIYGDLNSRNLIITWGSPTGVLRDILEESNFDFTLLQIRMFSPFPKNLVSKLMEGRDKIITVEGNYLAQTSLLVKMYTGKDVTNSILKWNGRPFLRDELEEALIKVIKDGEKRVVLNGGI
chain 2: PQWNDWCPGCGNFGILNAEQQAIVELGVDTKNVVVVSGIGCSGKIPHFFRTPISGVHTLHGRAIAFATGIKLSNPDLVVIVNGGDGDLLGIGAGHFVAAGRRNVDMVVILHDNGVYGLTKGQASPTLKRGEKPKSLPRPNINDAVNPIALAISSGYTFVARGYAYDVKHLKELIKSAIKHKGLALIDVLQPCPTYNDINTKEWYDKRIYKLDTLPDWDPVVKKPEEVNEKIKRAIDKSLEWGDRIPIGIFYQNELVPSYEERIKANSPAYLDYTPAKQLIEKEGKLTTIIDPLLKEREVD
notes: a-subunit of StOFOR1, STK_23000, Sulfolobus tokodaii strain 7, 70 kDa; as the chain of m1; b-subunit of StOFOR1, STK_22980, Sulfolobus tokodaii strain 7, 34 kDa; as the chain of m2; One protomer is the pair of a- and b-subunits that holds one TPP; Two protomers form the (ab)2 enzyme; Cofactors: TPP, Mg2+, [4Fe-4S]; also called STK_23000/STK_22980; source: E. coli C43 (DE3), both subunits …
As for B3, the “stoichiometry N” value in data set [3] came to 2.
